Experimental data reported in US20140186363A1 (UNIVERSITY OF ZURICH, published 2014).

Legend:
Test in all cases: peptide ELISA (coated 20mer)
MAGEA3 peptide no 19 = biological target: T1, MAGEA3 peptide no 19
T1 construct: also called MAGEA3 aa 181-200
T1 peptide: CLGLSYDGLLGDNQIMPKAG
Procedure: (§1) 20mer peptides spanning the entire MAGEA3 protein with 10 aa overlaps shared by each adjacent peptide (Peptides&Elephants, Nuthetal, Germany) were used to coat Maxisorp ELISA plates (Nunc, Rochester, N.Y.). As control a 20mer peptide representing amino acids 40-21 from the NY-ESO-1 protein was used (rev). The numbering of amino acids of MAGEA3 is based on SEQ ID No:41.
(§2) Human recombinant antibody was used at a concentration of 1 μg/ml. Bound human antibody was detected using horseradish peroxidase-conjugated goat anti-human IgG Fc-gamma specific antibodies (Jackson ImmunoResearch, Europe Ltd., Cambridgeshire, UK).

MAGEA3 peptide no 15 = biological target: T2, MAGEA3 peptide no 15
T2 construct: also called MAGEA3 aa 141-160
T2 peptide: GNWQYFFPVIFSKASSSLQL
Procedure: as §1, §2

MAGEA3 peptide no 29 = biological target: T3, MAGEA3 peptide no 29
T3 construct: also called MAGEA3 aa 281-300
T3 peptide: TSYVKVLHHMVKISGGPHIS
Procedure: as §1, §2

MAGEA3 peptide no 18 = biological target: T4, MAGEA3 peptide no 18
T4 construct: also called MAGEA3 aa 171-190
T4 peptide: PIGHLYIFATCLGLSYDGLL
Procedure: as §1, §2

MAGEA3 peptide no 2 = biological target: T5, MAGEA3 peptide no 2
T5 construct: also called MAGEA3 aa 11-30
T5 peptide: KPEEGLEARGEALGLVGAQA
Procedure: as §1, §2

MAGEA3 peptide no 8 = biological target: T6, MAGEA3 peptide no 8
T6 construct: also called MAGEA3 aa 71-90
T6 peptide: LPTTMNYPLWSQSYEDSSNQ
Procedure: as §1, §2

MAGEA3 peptide no 17 = biological target: T7, MAGEA3 peptide no 17
T7 construct: also called MAGEA3 aa 161-180
T7 peptide: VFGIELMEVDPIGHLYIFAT
Procedure: as §1, §2

MAGEA3 peptide no 13 = biological target: T8, MAGEA3 peptide no 13
T8 construct: also called MAGEA3 aa 121-140
T8 peptide: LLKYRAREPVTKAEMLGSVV
Procedure: as §1, §2

MAGEA3 peptide no 28 = biological target: T9, MAGEA3 peptide no 28
T9 construct: also called MAGEA3 aa 271-290
T9 peptide: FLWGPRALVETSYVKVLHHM
Procedure: as §1, §2

MAGEA3 peptide no 7 = biological target: T10, MAGEA3 peptide no 7
T10 construct: also called MAGEA3 aa 61-80
T10 peptide: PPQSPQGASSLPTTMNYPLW
Procedure: as §1, §2

MAGEA3 peptide no 21 = biological target: T11, MAGEA3 peptide no 21
T11 construct: also called MAGEA3 aa 201-220
T11 peptide: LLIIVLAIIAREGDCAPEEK
Procedure: as §1, §2

MAGEA3 peptide no 22 = biological target: T12, MAGEA3 peptide no 22
T12 construct: also called MAGEA3 aa 211-230
T12 peptide: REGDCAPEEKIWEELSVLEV
Procedure: as §1, §2

MAGEA3 peptide no 26 = biological target: T13, MAGEA3 peptide no 26
T13 construct: also called MAGEA3 aa 251-270
T13 peptide: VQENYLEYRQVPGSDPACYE
Procedure: as §1, §2

MAGEA3 peptide no 20 = biological target: T14, MAGEA3 peptide no 20
T14 construct: also called MAGEA3 aa 191-210
T14 peptide: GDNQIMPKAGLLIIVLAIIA
Procedure: as §1, §2

MAGEA3 peptide no 27 = biological target: T15, MAGEA3 peptide no 27
T15 construct: also called MAGEA3 aa 261-280
T15 peptide: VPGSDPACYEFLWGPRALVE
Procedure: as §1, §2

MAGEA3 peptide no 31 = biological target: T16, MAGEA3 peptide no 31
T16 construct: also called MAGEA3 aa 295-314
T16 peptide: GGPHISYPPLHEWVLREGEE
Procedure: as §1, §2

Measured: binding result

B1: 32H2 (antibody, V domains shown)
VH: QVQLVESGGGVVQPGRSLRLSCAASGFTFSSNAMHWVRQAPGKGLEWVAVISHDGSNKYYADSVKGRFTISRDNSKNTLYLQMNSLRAEDTAVYYCARDGSGSYFNLDYWGQGTLVTVSS
VL: QSALTQPASVSGSPGQSITISCTGTSSDVGGYNYVSWYQQHPGKAPKLMIYEVSNRPSGVSNRFSGSKSGNTASLTISGLQAEDEADYYCSSYTSSSTLVFGTGTKVTVL
notes: Patient-derived human antibody made recombinantly; also called human monoclonal antibody 32H2
no binding (tested: 1 µg/ml): all assays above
